{"source": "paper doi:10.1101/2024.10.29.618823", "about": "(bioRxiv, 2024)", "proteins": {"B1": {"name": "Csy3 (natural protein)", "chain": "MSKPILSTASVLAFERKLDPSDALMSAGAWAQRDASQEWPAVTVREKSVRGTISNRLKTKDRDPAKLDASIQSPNLQTVDVANLPSDADTLKVRFTLRVLGGAGTPSACNDAAYRDKLLQTVATYVNDQGFAELARRYAHNLANARFLWRNRVGAEAVEVRINHIRQGEVARAWRFDALAIGLRDFKADAELDALAELIASGLSGSGHVLLEVVAFARIGDGQEVFPSQELILDKGDKKGQKSKTLYSVRDAAAIHSQKIGNALRTIDTWYPDEDGLGPIAVEPYGSVTSQGKAYRQPKQKLDFYTLLDNWVLRDEAPAVEQQHYVIANLIRGGVFGEAEEK"}}, "experiment_in_all_cases": "cryo-EM structure", "key": {"[1]": {"biological_target": "the molecule itself"}, "[2]": {"biological_target": "the molecule itself", "remark": "listed apart in the source"}, "[3]": {"biological_target": "the molecule itself", "remark": "listed apart in the source"}}, "note": "Where two headings read alike, the source gives them in different places.", "data": [{"protein": "B1", "values": [{"measurement": "stoichiometry N", "setting": "[1]", "result": 6}, {"measurement": "stoichiometry N", "setting": "[2]", "result": 4}, {"measurement": "stoichiometry N", "setting": "[3]", "result": 5}]}]}
